{
  "source": "the Human Domainome abundance scans (Beltran et al. 2025)",
  "parents": {"B1": {"name": "Receptor-interacting serine/threonine-protein kinase 2, residues 438 to 518; numbered along this chain, O43353 (parent)", "chain": "QWIQSKREDIVNQMTEACLNQSLDALLSRDLIMKEDYELVSTKPTRTSKVRQLLDTTDIQGEEFAKVIVQKLKDNKQMGLQ"}},
  "note": "± gives the uncertainty stated by the source.",
  "data": [
    {"variants_of": "B1", "experiment": "abundance fitness (aPCA) (normalised: wild type 0, dead -1); higher = more abundant; growth selection in yeast, the domain comes from the species named", "conditions": "Homo sapiens", "values": [
      {"variant": "QWIQSKREDIVNQMTEACLNQSLDALLSRDLINKEDYELVSTKPTRTSKVRQLLDTTDIQGEEFAKVIVQKLKDNKQMGLQ", "note": "[M33N]", "abundance fitness": "-0.132 ± 0.36"},
      {"variant": "QWIQSKREDIVNQMTEACLNQSLDALLSRDLITKEDYELVSTKPTRTSKVRQLLDTTDIQGEEFAKVIVQKLKDNKQMGLQ", "note": "[M33T]", "abundance fitness": "0.247 ± 0.095"},
      {"variant": "QWIQSKREDIVNQMTEACLNQSLDALLSRDLIRKEDYELVSTKPTRTSKVRQLLDTTDIQGEEFAKVIVQKLKDNKQMGLQ", "note": "[M33R]", "abundance fitness": "0.141 ± 0.053"},
      {"variant": "QWIQSKREDIVNQMTEACLNQSLDALLSRDLIKKEDYELVSTKPTRTSKVRQLLDTTDIQGEEFAKVIVQKLKDNKQMGLQ", "note": "[M33K]", "abundance fitness": "-0.088 ± 0.17"},
      {"variant": "QWIQSKREDIVNQMTEACLNQSLDALLSRDLIPKEDYELVSTKPTRTSKVRQLLDTTDIQGEEFAKVIVQKLKDNKQMGLQ", "note": "[M33P]", "abundance fitness": "-0.039 ± 0.054"},
      {"variant": "QWIQSKREDIVNQMTEACLNQSLDALLSRDLIQKEDYELVSTKPTRTSKVRQLLDTTDIQGEEFAKVIVQKLKDNKQMGLQ", "note": "[M33Q]", "abundance fitness": "0.145 ± 0.11"},
      {"variant": "QWIQSKREDIVNQMTEACLNQSLDALLSRDLISKEDYELVSTKPTRTSKVRQLLDTTDIQGEEFAKVIVQKLKDNKQMGLQ", "note": "[M33S]", "abundance fitness": "0.195 ± 0.073"},
      {"variant": "QWIQSKREDIVNQMTEACLNQSLDALLSRDLIIKEDYELVSTKPTRTSKVRQLLDTTDIQGEEFAKVIVQKLKDNKQMGLQ", "note": "[M33I]", "abundance fitness": "-0.075 ± 0.12"},
      {"variant": "QWIQSKREDIVNQMTEACLNQSLDALLSRDLIYKEDYELVSTKPTRTSKVRQLLDTTDIQGEEFAKVIVQKLKDNKQMGLQ", "note": "[M33Y]", "abundance fitness": "-0.439 ± 0.23"},
      {"variant": "QWIQSKREDIVNQMTEACLNQSLDALLSRDLIWKEDYELVSTKPTRTSKVRQLLDTTDIQGEEFAKVIVQKLKDNKQMGLQ", "note": "[M33W]", "abundance fitness": "-0.646 ± 0.094"},
      {"variant": "QWIQSKREDIVNQMTEACLNQSLDALLSRDLILKEDYELVSTKPTRTSKVRQLLDTTDIQGEEFAKVIVQKLKDNKQMGLQ", "note": "[M33L]", "abundance fitness": "0.059 ± 0.061"},
      {"variant": "QWIQSKREDIVNQMTEACLNQSLDALLSRDLIMKELYELVSTKPTRTSKVRQLLDTTDIQGEEFAKVIVQKLKDNKQMGLQ", "note": "[D36L]", "abundance fitness": "-0.791 ± 0.11"},
      {"variant": "QWIQSKREDIVNQMTEACLNQSLDALLSRDLIMKEAYELVSTKPTRTSKVRQLLDTTDIQGEEFAKVIVQKLKDNKQMGLQ", "note": "[D36A]", "abundance fitness": "-0.267 ± 0.11"},
      {"variant": "QWIQSKREDIVNQMTEACLNQSLDALLSRDLIMKEEYELVSTKPTRTSKVRQLLDTTDIQGEEFAKVIVQKLKDNKQMGLQ", "note": "[D36E]", "abundance fitness": "-0.147 ± 0.11"},
      {"variant": "QWIQSKREDIVNQMTEACLNQSLDALLSRDLIMKEQYELVSTKPTRTSKVRQLLDTTDIQGEEFAKVIVQKLKDNKQMGLQ", "note": "[D36Q]", "abundance fitness": "0.121 ± 0.084"},
      {"variant": "QWIQSKREDIVNQMTEACLNQSLDALLSRDLIMKEPYELVSTKPTRTSKVRQLLDTTDIQGEEFAKVIVQKLKDNKQMGLQ", "note": "[D36P]", "abundance fitness": "-0.459 ± 0.065"},
      {"variant": "QWIQSKREDIVNQMTEACLNQSLDALLSRDLIMKEWYELVSTKPTRTSKVRQLLDTTDIQGEEFAKVIVQKLKDNKQMGLQ", "note": "[D36W]", "abundance fitness": "-1.04 ± 0.16"},
      {"variant": "QWIQSKREDIVNQMTEACLNQSLDALLSRDLIMKEGYELVSTKPTRTSKVRQLLDTTDIQGEEFAKVIVQKLKDNKQMGLQ", "note": "[D36G]", "abundance fitness": "-0.551 ± 0.1"},
      {"variant": "QWIQSKREDIVNQMTEACLNQSLDALLSRDLIMKEVYELVSTKPTRTSKVRQLLDTTDIQGEEFAKVIVQKLKDNKQMGLQ", "note": "[D36V]", "abundance fitness": "-0.587 ± 0.24"},
      {"variant": "QWIQSKREDIVNQMTEACLNQSLDALLSRDLIMKEYYELVSTKPTRTSKVRQLLDTTDIQGEEFAKVIVQKLKDNKQMGLQ", "note": "[D36Y]", "abundance fitness": "-0.608 ± 0.28"},
      {"variant": "QWIQSKREDIVNQMTEACLNQSLDALLSRDLIMKEHYELVSTKPTRTSKVRQLLDTTDIQGEEFAKVIVQKLKDNKQMGLQ", "note": "[D36H]", "abundance fitness": "-0.194 ± 0.14"},
      {"variant": "QWIQSKREDIVNQMTEACLNQSLDALLSRDLIMKERYELVSTKPTRTSKVRQLLDTTDIQGEEFAKVIVQKLKDNKQMGLQ", "note": "[D36R]", "abundance fitness": "-0.718 ± 0.074"},
      {"variant": "QWIQSKREDIVNQMTEACLNQSLDALLSRDLIMKEKYELVSTKPTRTSKVRQLLDTTDIQGEEFAKVIVQKLKDNKQMGLQ", "note": "[D36K]", "abundance fitness": "-0.545 ± 0.14"},
      {"variant": "QWIQSKREDIVNQMTEACLNQSLDALLSRDLIMKECYELVSTKPTRTSKVRQLLDTTDIQGEEFAKVIVQKLKDNKQMGLQ", "note": "[D36C]", "abundance fitness": "-0.839 ± 0.23"},
      {"variant": "QWIQSKREDIVNQMTEACLNQSLDALLSRDLIMKETYELVSTKPTRTSKVRQLLDTTDIQGEEFAKVIVQKLKDNKQMGLQ", "note": "[D36T]", "abundance fitness": "-0.244 ± 0.11"},
      {"variant": "QWIQSKREDIVNQMTEACLNQSLDALLSRDLIMKEMYELVSTKPTRTSKVRQLLDTTDIQGEEFAKVIVQKLKDNKQMGLQ", "note": "[D36M]", "abundance fitness": "-0.711 ± 0.22"},
      {"variant": "QWIQSKREDIVNQMTEACLNQSLDALLSRDLIMKESYELVSTKPTRTSKVRQLLDTTDIQGEEFAKVIVQKLKDNKQMGLQ", "note": "[D36S]", "abundance fitness": "-0.551 ± 0.077"},
      {"variant": "QWIQSKREDIVNQMTEACLNQSLDALLSRDLIMKENYELVSTKPTRTSKVRQLLDTTDIQGEEFAKVIVQKLKDNKQMGLQ", "note": "[D36N]", "abundance fitness": "-0.678 ± 0.37"},
      {"variant": "QWIQSKREDIVNQMTEACLNQSLDALLSRDLIMREDYELVSTKPTRTSKVRQLLDTTDIQGEEFAKVIVQKLKDNKQMGLQ", "note": "[K34R]", "abundance fitness": "-0.124 ± 0.063"},
      {"variant": "QWIQSKREDIVNQMTEACLNQSLDALLSRDLIMAEDYELVSTKPTRTSKVRQLLDTTDIQGEEFAKVIVQKLKDNKQMGLQ", "note": "[K34A]", "abundance fitness": "-0.094 ± 0.078"},
      {"variant": "QWIQSKREDIVNQMTEACLNQSLDALLSRDLIMHEDYELVSTKPTRTSKVRQLLDTTDIQGEEFAKVIVQKLKDNKQMGLQ", "note": "[K34H]", "abundance fitness": "-0.528 ± 0.17"},
      {"variant": "QWIQSKREDIVNQMTEACLNQSLDALLSRDLIMLEDYELVSTKPTRTSKVRQLLDTTDIQGEEFAKVIVQKLKDNKQMGLQ", "note": "[K34L]", "abundance fitness": "-0.079 ± 0.097"},
      {"variant": "QWIQSKREDIVNQMTEACLNQSLDALLSRDLIMTEDYELVSTKPTRTSKVRQLLDTTDIQGEEFAKVIVQKLKDNKQMGLQ", "note": "[K34T]", "abundance fitness": "-0.515 ± 0.22"},
      {"variant": "QWIQSKREDIVNQMTEACLNQSLDALLSRDLIMSEDYELVSTKPTRTSKVRQLLDTTDIQGEEFAKVIVQKLKDNKQMGLQ", "note": "[K34S]", "abundance fitness": "-0.23 ± 0.065"}
    ]}
  ]
}
